Test [1] deals with T1, Recombinant Ded1-His (Saccharomyces cerevisiae, UniProt P06634 1-604).
T1 construct: Ded1, DEAD-box RNA helicase of budding yeast, expressed from the pET22b plasmid; also called purified Ded1
Kind of test: co-IP; as a3, but SRP14, SRP21, SRP54 and Sec65 incubated together with Ded1; recovered with Ded1-specific IgG beads. The settings on record: both partners purified.

Test [2] concerns the target T1, Recombinant Ded1-His. Kind of test: co-IP; purified Ded1 (4 µg) incubated with one purified SRP protein (4-6 µg), no RNA, 1x PBS with 2 mM MgCl2, 45 min, 30 °C; recovered with Ded1-specific IgG cross-linked to protein A-Sepharose beads; SDS-PAGE, Coomassie blue. As to conditions: both partners purified.

T1 sequence (P06634 whole entry): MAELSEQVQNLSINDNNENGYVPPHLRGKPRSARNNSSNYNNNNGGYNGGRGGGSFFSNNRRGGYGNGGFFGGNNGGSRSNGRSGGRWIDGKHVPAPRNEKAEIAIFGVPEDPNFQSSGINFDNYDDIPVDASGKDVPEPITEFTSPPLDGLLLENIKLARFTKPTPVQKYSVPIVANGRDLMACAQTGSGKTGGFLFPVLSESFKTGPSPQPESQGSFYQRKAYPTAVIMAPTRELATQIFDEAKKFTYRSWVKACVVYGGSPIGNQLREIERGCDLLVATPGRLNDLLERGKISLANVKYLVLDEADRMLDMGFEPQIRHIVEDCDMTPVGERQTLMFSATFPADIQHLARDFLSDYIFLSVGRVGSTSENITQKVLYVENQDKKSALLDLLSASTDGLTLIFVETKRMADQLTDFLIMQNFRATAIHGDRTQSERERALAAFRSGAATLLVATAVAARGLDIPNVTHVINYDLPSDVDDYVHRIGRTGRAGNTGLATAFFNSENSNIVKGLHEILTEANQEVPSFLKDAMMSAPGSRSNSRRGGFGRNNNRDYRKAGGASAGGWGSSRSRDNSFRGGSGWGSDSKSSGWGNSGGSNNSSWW

B1: His-tagged SRP14 (natural protein, yeast (S. cerevisiae), UniProt P38985 1-146, looked up)
chain: MANTGCLSPGAFLSKVPEFFQTANEKHITVRLTAKRLIEHDPVEGNLEFDSTNHPDYDVSKKASEISVSSRSDREYPLLIRMSYGSHDKKTKCSTVVKASELDQFWQEYSSVFKGGMQNLIKKKKKKSKNGTISKTGKKNKVAKKN
notes: SRP14 of yeast, subcloned into the NdeI and XhoI sites of pET22b; source: E. coli Rosetta (DE3), purified (Ni-NTA)
For B1, in the test with Recombinant Ded1-His [1], the binding result was “binds”.

B2: His-tagged Sec65 (natural protein, yeast (S. cerevisiae), UniProt P29478 1-273, looked up)
chain: MPRLEEIDDFNDIDDLDMELAELDPSLRTPIAPKITPKVVRSQDQENPAFLPGTNNNSNSNNNSSNEKEQLSFINPKTGKVERSEAISKKDLEEVKRFQVLYPCYFDINRSHKEGRRVPKELAVENPLAKTMADAVRELGILCIFEGEKCHPQDFGNPGRIRVLFKENGQLIGAATKFKGGKRQLMKAVGEYMKRHPTTIESLREIPYGPDFDNIEFKKIPRVKGFKMNEIVPLHSPFLMGHPMTKSVYETPKITAAEKSFKPPKNKYKVVRR
notes: Sec65 of yeast, cloned into the XhoI and BamHI sites of pET19b; source: E. coli Rosetta (DE3), purified (Ni-NTA)
Turning to B2, the binding result with Recombinant Ded1-His [2] is listed as “binds”.

These data come from article PMC11206880, “The RNA Helicase Ded1 from Yeast Is Associated with the Signal Recognition Particle and Is Regulated by SRP21” (Molecules, 2024).
